Measurements as given in the DeepSol protein solubility set.

Assay: soluble on expression in E. coli; label from the status in PepcDB or PDB records

For “MGSDKIHHHHHHMNNLYPYGAPDSNLYARKQEEYDQQIAEAILAGIKREATAIELYRRLADEAPSEQHQHDIRQALENKQASLTQFTNAYRILTGQQPQLEVDDVSFYRFHEGLQKAYEIEVEGYEEYERSSALTENPHVQHAFWTALNTEYENTTRLYRSLHEEADHRVTDHGPRPFVVNIEDETKRNRAFRRALWTGDHLQVTLMSIQVGEDIGLEIHPHLDQFLRVEEGRGLVQMGHRQDNLHFQEEVFDDYAILIPAGTWHNVRNTGNRPLKLYSIYAPPQHPHGTVHETKAIAMAAEEHHHL”, the “soluble on expression in E. coli” value was “not soluble”.

For “MAHHHHHHMLRYTPMWRCSAAAMQTLSAWLTDLAEESMAVPSATAADLQTRQNDGQGPTRKTPAQLWRELEDAATHANALRETDTLFSILQCLLLKQQYPTDVHAWARLAKQLLPYSGIEQKSVLHYPGRSDASYRRDGHPGGSSLANLSSSSDPVLTDADGGFGDDGASRRGGGGARRGGEYAVPYSLYPSRETLLLSGGVVPLSARVPCGDGRAISLFVRGFTRFVEGQLGVQPHTQLTSELLQVVKDVSGAVTEALAVNADSLQLELLLPALLDYMELLHVLDLRTATVAACGPLATEEERRDAAGATVRDDEPNGHGRSSPPRPSKPTRFLQNMVHDLAQNAMAGAARGARVVLYYLNECFAAVVEAYQADAAATFTDKMYWAQQRYLLTLTRACMWAISQHYTSATTAALSAASGSVASSPSPHVQGLRPTVATADLVATAPMNAHIQALYDHIDVLFQRNTHADNPLHLTDEEVAQLKEIHTAALLRALRIEEAAPDAYLRRALEVVDRVPASMAIEGELIAGKVRLLELDSDTVDEEGRAAIYDDLLTSLRSLVEMRPRFLRHNGAHHAAGGGAAAAASASTPADGGGGGGEEDEGDGEQLRLDAATQAILQRAHFDVITAFCAAHKEEWSNEAYNILVAHKYHGVKITNDLIRPVLEVFSRRGDCRVFSLVDLCVLYSNEPIDMHTIALLFRTCAAAGDHHRARTFLQLVNEIIHGFLVKCPASVKESLQELKLLDPPPRHLFVSTEDDLVQSALGEQQRTVRRLPTGS”, the “soluble on expression in E. coli” value was “not soluble”.

For “MSLSAPKQWQVGIVGYGEVGKILAEDLRAQGVKVAAYDVKLADDRGGPLREHASRHDVALTTSHAELAARSDFIISAVTASQTVAVAEACAGAINQGTWFLDFNSASPGAKQRAASLIDGAQGRYVEGAVMTSVPPYRIKVPLLLGGAYAAELAPLINTLGFAAKPASDQLGVASATKMCRSIMIKGLEAMVIESFTTARAYGVEDAVIASLQETFPQIDWEKQGAYFFQRVIAHGRRRAEEVREVAETVREAGLTPWSAQGTAERQAWVADLADEGLFGTRGASGFARSPDWRTEADRILAKVKDETKTEGHHHHHH”, the “soluble on expression in E. coli” value was “not soluble”.

In the case of “SNAMTEEHVVLLDEQDKPSGTLEKYAAHTLNTPLHLAFSCWLFNEDGQLLVTRRSLSKKAWPGVWTNSVCGHPQQGETTEEAIIRRCRFELGVEITDLTPVYPHFSYRATDPNGIVENEVCPVFAARATSVLQVNSEEVMDYQWSEFKSVWKSLLATPWAFSPWMVMQASDEQARERLLNYCQR”, the “soluble on expression in E. coli” value is reported as “soluble”.

With “MPCRGLHAIPAGPPEFPELATIYVVCGDKLNVMIDAGVTNSIMDSSFLEKLDLVILTHIHIDHIGLLPEILDRYKNAKVMIKNGFKKFLTTEDGVRRLNESSEKVLGDLYYIYGEFTKIDPDKVVEVEGGEMIDIGDGKTLKIIYTPGHAKHHISVVSDDILFTGDSGGAYFNGAVIPTTPPPLDYDNYVNSLRLQISLKPKVVGLAHGGLVSPNILEQHLDQMLGKESFDIGEIDIGGIGGEILRKQVEVNLRGLNEALGRNKKTLLEHHHHHH” the “soluble on expression in E. coli” value was “not soluble”.

For “SFQGIRQPVTVTELVDSGILRPSTVNELESGQISYDEVGERIKDFLQGSSCIAGIYNETTKQKLGIYEAMKIGLVRPGTALELLEAQAATGFIVDPVSNLRLPVEEAYKRGLVGIEFKEKLLSAERAVTGYNDPETGNIISLFQAMNKELIEKGHGIRLLEAQIATGGIIDPKESHRLPVDIAYKRGYFNEELSEILSDPSDDTKGFFDPNTEENLTYLQLKERCIKDEETGLCLLPLKEKKKQVQTS”, the “soluble on expression in E. coli” value was “soluble”.

In the case of “MSAVPFPLLRLPNSALQKSLKEMRLVEQLSLSLLSENTMQLVRRFNRGRYFATITVVDSICVHLWTARCGQLFFKIKPDQSIRAVNILKSDSIATKFTMPKIPGFTVKKWLEHISHVFFSDTGATLRWMSSVRNIEETCEILKEVKIARLAINPSTVQDCQMRRLLPAIKELIVSDSTVHGSIVHWNLEKLSVFSTTMTLDDLLLSNCSDIAIGRNSLSHKNRNIFMRQWINGSNPRLQYFAMLMGFNGVQQLENTLFENIKYTETTVQGASTYKEFEIEGRDGRTAKIKLNTELTSRYFAMNVIF”, the “soluble on expression in E. coli” value is reported as “not soluble”.

In the case of “MNYGFVKVAAAVPHVKVADCKFNVERIESQIAIAEGKGVQIIVFPEMSITGYTCGDLFGQQILLEEAEMGLMQILNNTRQLDIISIVGMPVVVNSTVINAAVVIQKGKVLGVAAKTYLPNYKEFYEQRWFTSALQLTEDTVRLCGQIVPIGANLLFETSDTTFGIEICEDLWATIPPSSSLALQGAEIIFNMSADNEGIGKHHYLCSLISQQSARCIAGYVFSSCGFGESTTDVVFAGNGLIYENGSLLARSKRFCMEEQLIISEIDVERIRAERRINTTFAASQGNPGDKKAISVATEFVNSKELTLTRDFNSHPFVPQGAELDEHCEEVFSIQIAGLAQRLVHTKAKTAVVGISGGLDSTLALLVCVKTFDKLGLPRKDILGVTMPGFGTTDRTYNNAIDLMKSLGISIREISIQDACIQHFKDIDHDINVHDVTYENSQARERTQILMDIANQTWGMVVGTGDLSELALGWATYNGDHMSMYGVNGSIPKTLVKYLVQWVAENDMDEDAKATLLDIVDTPISPELIPADENGEIKQKTEDLVGPYELHDFFLYYFLRFGFRPSKIYYLANIAFKDVYDKETIKKWLSTFFRRFFNQQFKRSCLPDGPKVGSISISPRGDWRMPSDASSTIWLKEIEDLLEHHHHHH”, the “soluble on expression in E. coli” value is reported as “not soluble”.

In the case of “SGVTGAHGFPCCGKGSVEVAEMRDDLSQHQIQEEQELEADMLEQKPQLQVDLDLDPDPDPDPELEIGQVPALLESELYPALKLEAELDTEANSNEESDFEEPMQLVCKIESVHSNMGLPTPQTFRPWSLNSNCRSFTEENHMSACHHSISAQTSKHLFWANKLIQASEHSLQRAINMQLNNGSAGQPIRSPLREAIPTNALCSEEQLQIPDAHSAPPTTSSQAPSPLLSSDLPPPIDLTELITFASSLAMASSSRMDLPSLEHMMKAPPQEALEPSTEPLLTTVEEREPENHAETLPEKPREARAPLKSWSQEDKNFAQSYFDFSKPGIKRATIKGQIQLLQPPATSPLLQGSKEDSVPPGKEKENPLLVKIHFKLSAPTIPEK”, the “soluble on expression in E. coli” value is reported as “soluble”.

In the case of “MNPDEPNFIWKDLNAVRDMGCIIENELSEVLPNKRYETYSIIGRSGEFNETFNDYEPFDYEIEDVTIPYENLAAVKRWLTGKSKLITHNDEDKYLDAICTMSKPTSFKNEWGVFYTFNVEFRCQPFKRKVNEQPKVIKTKSIEITDHGDEIAFPYIEINSKGGDITLNIGSNSLTILRTQSGIVTIDTEKGKAIQEGNPLFTRGSWIKTNPGQNKLNISGNFIEAKFWNRSAYL”, the “soluble on expression in E. coli” value is reported as “not soluble”.

With “MGINVQFRPMTIHDIDEVVQVERASFTSPWSRESFYNELMYNRYAKYIVMVYNGRIIGYGGMWLVIDEAHVTNVAVLPQFRGQKLGEALMRRLMDMARQHGAATMTLEVRVSNHVAQSLYRKLGFRNGGIRKRYYPDNFEDALVMWVKLR” the “soluble on expression in E. coli” value was “not soluble”.

With “MKKRYLVLTALLALSLAACSQEKTKNEDGETKTEQTAKADGTVGSKSQGAAQKKAEVVNKGDYYSIQGKYDEIIVANKHYPLSKDYNPGENPTAKAELVKLIKAMQEAGFPISDHYSGFRSYETQTKLYQDYVNQDGKAAADRYSARPGYSEHQTGLAFDVIGTDGDLVTEEKAAQWLLDHAADYGFVVRYLKGKEKETGYMAEEWHLRYVGKEAKEIAASGLSLEEYYGFEGGDYVD” the “soluble on expression in E. coli” value was “not soluble”.

With “MASEMKFAWLLAPDTYWDEKKTFITAALESGIDHIVDTADSGRIKKLGNLTLISPDEDADIVLVGRDGEGDGTLELPETLEYSRDIEMASELSESGRQVAAYVEIRSKAHEELARRLGRVVDYLILVGEDWKIIPLENIIADLQEEDVKLIAAVADVDEARVALETLEHGTDGVLIEPADISQIKDIAALLENIESETYELKPATITRIEPIGSGDRVCVDTCSIMGIGEGMLVGSYSQGLFLVHSESLESEYVASRPFRVNAGPVQAYVMVPGGRTRYLSELETGDEVIIVDRDGRSRSAIVGRVKIEKRPLMLVEAEYEGMKVRTLLQNAETIRLVNDKGEPVSVSELGEGDRVLVYFDESARHFGMAIKETIIEKLEHHHHHH” the “soluble on expression in E. coli” value was “soluble”.

In the case of “MGSDKIHHHHHHMTNEYEHLNAIQKIGLSILKEIIAICKRHDLTYYVYGGTLLGAIRHQGFIPWDDDVDIAMSRKDFEKLKQYQNEFPQYMFLDTIQQKGHQWTAAHVVDTRYKLEVGKGMKKATMSVWVDILIIDGVPNPGTFKYKIFSAAYLTARLLYKFSNFSNEVDLEKDRSAIETFFISFARITHIEKVINQHWAGCFIDWISRRYDLDKCEYGATLGGPQKMGETQPKYWFGKGKELLFEDIIVNGMEETENFLTKFYGPNYMTPPPLDKRNQHNVRLVEKIV”, the “soluble on expression in E. coli” value is reported as “not soluble”.

With “MASSSSAALRPFGTARLTPGRQTGRQTQQQISAPEPMIAIALSDMEYLMRSARSSRSSGRSERQPGCTCCCHIAAGVTVIPRVARFSIEGGLSTHTLMNHSDNRIAVKITCSDNNMYRVTPVYATVEPGQSLPLHIARITSDLIKRDRLCVNILEADGNKEAREIFKKNANTRAPASINMALEATNDNQNHHHQE” the “soluble on expression in E. coli” value was “not soluble”.

In the case of “MGSSHHHHHHSSGLVPRGSHMIVREGSAEILVPEVYHGPGKRGTGFYNADQKINRDITIEFIKKMGIRNVLDGFGGTGIRGIRISKETDSAVTISEVSPDSYRLIRDNVERNGSQASVINDSFECVLQHGAYEYVDVDPYGSPVPYLDAALMGVKRNGFLGVTATDQSALTGSVPHKTRIRYDALIKNDTFRHEMGIRLLIGYMAKRAASLGRFIDPLISIWHGHYYRVFVRVRKGFEGAGRMMQNLGYVNKHNLLSGIYQDMDEGPVWKGNLQDNAVAEAVLASAGHKAFNPEENRLLFCDLTDIARARHTSLPDIESVIDALSSSGHAASRTMFSPTGIKTDASCDLVESLMMDTLHRRSPA”, the “soluble on expression in E. coli” value is reported as “soluble”.

For “TQGERRQAEQLAVQTARTISYMPPVKELIERKDGHAAQTQEVIEQMKEQTGAFAIYVLNEKGDIRSASGKSGLKKLERSREILFGGSHVSETKADGRRVIRGSAPIIKEQKGYSQVIGSVSVDFLQT”, the “soluble on expression in E. coli” value was “not soluble”.

For “MIKLENELLLVEMKEAGAELTRIFHKDTKLEYLWNADSTFWGRHSPVLFPTVGRLVEDTYFVDGNPYHLGQHGFARDRDFKVVEHTENAVRFELDADEDSLTIYPYKFKLSIIYTIEKDSVAVSYEVENTDNKRIYFSIGAHPAFNLPLADGTTFEDYYLDFGTEENLETLCLEGPYRSGKIEKVVNEPARYLPLSYDLFKNDALIFEGLKQKEITIKSDKTPHFVKVSFPEFPFVGVWTAKAGTPFLCIEPWYGIADGAGKSVELRDKAGIEHLEPEAVFASEYKITIGLEHHHHHH”, the “soluble on expression in E. coli” value was “not soluble”.

For “IKLNTLNTMSMGVTMRYMSEKYFKMMCGVQMEINYSQRGWDEKIEDDSGNSYSRTMNYLEIPFMAHLAFGKDALNRGVKVFFNAGPQIGFFLGDNEKINWTTSTTRPEHGKEVENKFDYGITAGAGLEVSTGIGHFLLEGRYYMGLSDFYKNSKRDFFERSAHSFIGIRLSYLI”, the “soluble on expression in E. coli” value was “not soluble”.

With “MGSDKIHHHHHHMAEQMRRVARLFGDWPETIIWTCLEGTMGDIYVDDSQSPQSALALYGRQSFFGFLAGQPHRDLLKICEGKNIILVPQNQAWSDLIEEVYGDGVRFFTRYATKKDTEFDLGHLQKLVDDLPESFDMKLIDRNLYETCLVEEWSRDLVGNYIDVEQFLDLGLGCVILHKGQVVSGASSYASYSAGIEIEVDTREDYRGLGLAKACAAQLILACLDRGLYPSWDAHTLTSLKLAEKLGYELDKAYQAYEWR” the “soluble on expression in E. coli” value was “not soluble”.
